{
  "source": "paper PMC9499477",
  "about": "“The Inflammasome Activity of NLRP3 Is Independent of NEK7 in HEK293 Cells Co-Expressing ASC” (International Journal of Molecular Sciences, 2022)",
  "proteins": {"B1": {"name": "NLRP3ΔPYD carrying the double mutation F788E/F813E (NLRP3ΔPYD-F788E/F813E), FLAG-tagged (domain or fragment, human, UniProt Q96P20 126-1036, looked up)", "chain": "RISICKMKKDYRKKYRKYVRSRFQCIEDRNARLGESVSLNKRYTRLRLIKEHRSQQEREQELLAIGKTKTCESPVSPIKMELLFDPDDEHSEPVHTVVFQGAAGIGKTILARKMMLDWASGTLYQDRFDYLFYIHCREVSLVTQRSLGDLIMSCCPDPNPPIHKIVRKPSRILFLMDGFDELQGAFDEHIGPLCTDWQKAERGDILLSSLIRKKLLPEASLLITTRPVALEKLQHLLDHPRHVEILGFSEAKRKEYFFKYFSDEAQARAAFSLIQENEVLFTMCFIPLVCWIVCTGLKQQMESGKSLAQTSKTTTAVYVFFLSSLLQPRGGSQEHGLCAHLWGLCSLAADGIWNQKILFEESDLRNHGLQKADVSAFLRMNLFQKEVDCEKFYSFIHMTFQEFFAAMYYLLEEEKEGRTNVPGSRLKLPSRDVTVLLENYGKFEKGYLIFVVRFLFGLVNQERTSYLEKKLSCKISQQIRLELLKWIEVKAKAKKLQIQPSQLELFYCLYEMQEEDFVQRAMDYFPKIEINLSTRMDHMVSSFCIENCHRVESLSLGFLHNMPKEEEEEEKEGRHLDMVQCVLPSSSHAACSHGLVNSHLTSSFCRGLFSVLSTSQSLTELDLSDNSLGDPGMRVLCETLQHPGCNIRRLWLGRCGLSHECCEDISLVLSSNQKLVELDLSDNALGDEGIRLLCVGLKHLLCNLKKLWLVSCCLTSACCQDLASVLSTSHSLTRLYVGENALGDSGVAILCEKAKNPQCNLQKLGLVNSGLTSVCCSALSSVLSTNQNLTHLYLRGNTLGDKGIKLLCEGLLHPDCKLQVLELDNCNLTSHCCWDLSTLLTSSQSLRKLSLGNNDLGDLGVMMFCEVLKQQSCLLQNLGLSEMYFNYETKSALETLQEEKPELTVVFEPSW", "notes": "NLRP3, human, N-terminally truncated, amino acids 126-1036 (lacks the pyrin domain), with F788E and F813E; Made by megaprimer mutagenesis of the NLRP3ΔPYD construct; also called the mutant"}},
  "molecular_target": "the molecule itself",
  "assay": "SEC + other: dynamic light scattering; analytical SEC: 100 µL of 1 mg/mL FLAG-tagged NLRP3ΔPYD on Superose 6 Increase 10/300, 20 mM HEPES pH 7.5, 200 mM NaCl, 1 mM MgCl2, 2 mM DTT, size by calibration standards; DLS at 10 °C in the same buffer; self-association",
  "data": [
    {"protein": "B1", "values": [
      {"measurement": "stoichiometry N", "value": "~3"}
    ]}
  ]
}
